This assay addresses HIV-1 YU-2 gp120 wild type (HIV-1 (isolate YU-2), UniProt P35961 32-498). Briefly: SPR. (In general: Surface plasmon resonance follows binding to a sensor surface in real time, without labels.)

B1: [F5W]CD4F23 (designed binder)
chain: CNLHWCQLRCKSLGLLGKCAGSFCACV
modifications: C-terminal amide (-NH2); oxidized peptide
For the molecule B1, the binding result is “binds”.

For the origin of these results see article PMC3088361 (Biochemistry, 2011).
